pKd: −log10 of the molar value.

The text below walks through data of publication PMC8096149.

Holding throughout (test): flow cytometry on cells
Experiment [1] concerns the target Bovine2.2 H54TAG scFv with AzF.
The target of experiment [2] is Bovine2.2 L93TAG scFv with AzF.
The target in experiment [3] is Bovine2.2 L93TAG scFv with OPG.
Experiment [4] concerns the target Bovine2.2 H54TAG scFv with OPG.
For experiment [5], the target named is Bovine2.2 H31TAG scFv with AzF.
In experiment [6] the target is Bovine2.2 H31TAG scFv with OPG.
Experiment [7] addresses Donkey1.1 L93TAG scFv with AzF.
Experiment [8] addresses Donkey1.1 H54TAG scFv with AzF.
Experiment [9] has as its target Donkey1.1 L93TAG scFv with OPG.
In experiment [10] the target is Donkey1.1 H31TAG scFv with OPG.
In experiment [11] the target is Donkey1.1 H54TAG scFv with OPG.
The target in experiment [12] is Donkey1.1 H31TAG scFv with AzF.
For experiment [13], the target named is Donkey1.1 H31TAG scFv with AzMF.

Take “biotinylated bovine IgG (natural protein)”: the pKd was 6.42 in experiment [1]; 6.48 in [2]; 6.75 in [3]; 6.74 in [4]; 6.26 in [5]; 6.22 in experiment [6].
For the substance “biotinylated donkey IgG (natural protein)”, the pKd in [7] was 6.90; in experiment [8] it was 6.67; in [9], 7.35; in [10], 6.44; in [11] it was 7.25; in experiment [12], 6.25. In addition, the antigen binding level relative to wild-type at 200 nM IgG (% of wild-type) in experiment [10], in [12] and in experiment [13] was less than 10 in each case.
